From PMC9563011

Molecular target: IL-2Rα Fc tag (UniProt P01589)
Sequence of UniProt P01589 (P01589 22-240): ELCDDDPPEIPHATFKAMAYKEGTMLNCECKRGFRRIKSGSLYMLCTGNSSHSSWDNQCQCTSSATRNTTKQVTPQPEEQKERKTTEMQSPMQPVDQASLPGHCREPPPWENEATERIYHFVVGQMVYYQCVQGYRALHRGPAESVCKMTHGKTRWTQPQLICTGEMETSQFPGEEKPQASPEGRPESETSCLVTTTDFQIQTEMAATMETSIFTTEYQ

- EC50 of CTLL-2 cell proliferation (CellTiter-Glo, 48 h, 50 to 0.002 ng/mL): 0.014 µg/mL
Substance: IL-2K35C (from UniProt P60568 22-153) (ligand)
